Source: publication PMC9482650, “Quantitative fragmentomics allow affinity mapping of interactomes” (Nature Communications, 2022)

T1: GRIP1_5, Q9Y3R0
T1 sequence (Q9Y3R0 568-668, limits assumed, looked up): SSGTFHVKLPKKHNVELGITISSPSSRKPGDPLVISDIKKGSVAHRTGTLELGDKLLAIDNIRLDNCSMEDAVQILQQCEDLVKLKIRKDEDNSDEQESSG

T2: FRMPD1, Q5SYB0
T2 sequence (Q5SYB0 52-145, limits assumed, looked up): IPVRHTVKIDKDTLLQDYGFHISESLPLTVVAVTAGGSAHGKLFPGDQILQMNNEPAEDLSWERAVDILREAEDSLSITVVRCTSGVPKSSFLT

T3: APBA1_1, Q02410
T3 sequence (Q02410 651-752, limits assumed, looked up): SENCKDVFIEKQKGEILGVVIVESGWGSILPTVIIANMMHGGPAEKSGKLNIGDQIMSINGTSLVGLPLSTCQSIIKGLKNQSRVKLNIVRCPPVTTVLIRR

T4: DLG3_3, Q92796
T4 sequence (Q92796 374-475, limits assumed, looked up): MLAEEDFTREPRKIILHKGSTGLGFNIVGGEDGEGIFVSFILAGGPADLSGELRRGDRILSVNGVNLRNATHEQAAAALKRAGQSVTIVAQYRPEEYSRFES

T5: HTRA3, P83110
T5 sequence (P83110 354-453, limits assumed, looked up): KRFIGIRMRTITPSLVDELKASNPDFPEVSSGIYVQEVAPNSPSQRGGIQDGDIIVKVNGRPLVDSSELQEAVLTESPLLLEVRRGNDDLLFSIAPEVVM

T6: DFNB31_2, Q9P202
T6 sequence (Q9P202 274-371, limits assumed, looked up): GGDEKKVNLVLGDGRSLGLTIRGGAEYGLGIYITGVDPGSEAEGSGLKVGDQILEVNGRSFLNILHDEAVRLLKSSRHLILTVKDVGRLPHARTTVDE

T7: DVL3, Q92997
T7 sequence (Q92997 244-331, limits assumed, looked up): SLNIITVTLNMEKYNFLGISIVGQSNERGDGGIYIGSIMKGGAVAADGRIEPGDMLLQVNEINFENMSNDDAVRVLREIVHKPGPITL

T8: APBA1_2, Q02410
T8 sequence (Q02410 742-832, limits assumed, looked up): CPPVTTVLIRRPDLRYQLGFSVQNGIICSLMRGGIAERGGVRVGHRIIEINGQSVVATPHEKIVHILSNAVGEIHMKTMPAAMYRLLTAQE

T9: LNX2_2, Q8N448
T9 sequence (Q8N448 334-432, limits assumed, looked up): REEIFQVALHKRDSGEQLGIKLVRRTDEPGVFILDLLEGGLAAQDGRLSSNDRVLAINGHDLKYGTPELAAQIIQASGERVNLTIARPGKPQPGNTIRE


What was measured:
Test in all cases: holdup assay
Parameters in all cases: key: below the threshold = too weak to quantify, mostly under pKd 3.1 to 4
Conditions in all cases: plain residues with an end cap or a label only (N-terminal biotin on a linker: ado-ado)
[1] = biological target: NOS1, P29475
Sequence of NOS1, P29475 (P29475 9-101): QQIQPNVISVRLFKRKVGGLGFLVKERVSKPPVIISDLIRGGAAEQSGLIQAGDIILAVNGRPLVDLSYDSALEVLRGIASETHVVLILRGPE

[2] = biological target: T1, GRIP1_5, Q9Y3R0
[3] = biological target: T2, FRMPD1, Q5SYB0
[4] = biological target: T3, APBA1_1, Q02410
[5] = biological target: T4, DLG3_3, Q92796
[6] = biological target: PDLIM1, O00151
Sequence of PDLIM1, O00151 (O00151 1-87): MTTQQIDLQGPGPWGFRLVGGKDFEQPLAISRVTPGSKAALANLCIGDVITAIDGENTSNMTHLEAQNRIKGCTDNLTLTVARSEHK

[7] = biological target: T5, HTRA3, P83110
[8] = biological target: DLG1_3, Q12959
Sequence of DLG1_3, Q12959 (Q12959 457-571): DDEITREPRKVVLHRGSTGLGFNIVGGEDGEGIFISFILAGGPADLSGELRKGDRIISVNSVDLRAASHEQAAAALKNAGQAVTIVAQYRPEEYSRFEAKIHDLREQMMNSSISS

[9] = biological target: FRMPD3, Q5JV73
Sequence of FRMPD3, Q5JV73 (Q5JV73 12-100): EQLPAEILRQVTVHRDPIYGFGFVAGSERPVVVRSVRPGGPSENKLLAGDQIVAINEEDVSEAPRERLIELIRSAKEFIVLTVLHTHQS

[10] = biological target: Inadl_4, Q8NI35
Sequence of Inadl_4, Q8NI35 (Q8NI35 547-651): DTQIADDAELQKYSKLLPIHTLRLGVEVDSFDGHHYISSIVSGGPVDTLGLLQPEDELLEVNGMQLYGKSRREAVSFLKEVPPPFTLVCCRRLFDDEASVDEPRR

[11] = biological target: Inadl_5, Q8NI35
Sequence of Inadl_5, Q8NI35 (Q8NI35 673-780): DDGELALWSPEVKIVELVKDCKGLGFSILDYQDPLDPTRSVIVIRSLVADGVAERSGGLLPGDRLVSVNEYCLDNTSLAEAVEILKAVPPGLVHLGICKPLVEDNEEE

[12] = biological target: Inadl_9, Q8NI35
Sequence of Inadl_9, Q8NI35 (Q8NI35 1530-1615): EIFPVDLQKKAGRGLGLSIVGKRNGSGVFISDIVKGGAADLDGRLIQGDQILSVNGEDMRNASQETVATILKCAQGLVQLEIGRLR

[13] = biological target: T6, DFNB31_2, Q9P202
[14] = biological target: GOPC, Q9HD26
[15] = biological target: TJP1_3, Q07157
Sequence of TJP1_3, Q07157 (Q07157 416-512): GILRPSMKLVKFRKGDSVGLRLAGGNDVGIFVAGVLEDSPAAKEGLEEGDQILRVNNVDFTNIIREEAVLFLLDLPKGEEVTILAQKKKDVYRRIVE

[16] = biological target: T7, DVL3, Q92997
[17] = biological target: T8, APBA1_2, Q02410
[18] = biological target: T9, LNX2_2, Q8N448
[19] = biological target: SCRIB_3, Q14160
Sequence of SCRIB_3, Q14160 (Q14160 999-1103): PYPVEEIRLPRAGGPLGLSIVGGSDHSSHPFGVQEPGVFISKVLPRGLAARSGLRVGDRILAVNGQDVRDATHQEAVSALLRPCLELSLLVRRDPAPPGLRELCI

[20] = biological target: DLG1_2, Q12959
Sequence of DLG1_2, Q12959 (Q12959 314-412): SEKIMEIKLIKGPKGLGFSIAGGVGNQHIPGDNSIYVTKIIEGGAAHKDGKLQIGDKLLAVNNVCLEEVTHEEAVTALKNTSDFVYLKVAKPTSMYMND

[21] = biological target: TJP2_1, Q9UDY2
Sequence of TJP2_1, Q9UDY2 (Q9UDY2 24-128): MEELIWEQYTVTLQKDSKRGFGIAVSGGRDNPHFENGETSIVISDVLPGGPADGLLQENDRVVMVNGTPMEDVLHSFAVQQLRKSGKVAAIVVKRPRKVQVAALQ

[22] = biological target: PTPN3, P26045
Sequence of PTPN3, P26045 (P26045 505-587): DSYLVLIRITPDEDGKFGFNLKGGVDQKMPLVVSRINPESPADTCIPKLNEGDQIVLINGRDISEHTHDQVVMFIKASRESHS

[23] = biological target: GRIP2_3, Q9C0E4
Sequence of GRIP2_3, Q9C0E4 (Q9C0E4 238-339): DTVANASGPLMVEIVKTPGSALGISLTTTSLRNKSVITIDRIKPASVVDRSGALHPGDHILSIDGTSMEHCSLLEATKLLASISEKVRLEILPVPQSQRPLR

[24] = biological target: AHNAK1, Q09666
Sequence of AHNAK1, Q09666 (Q09666 4-100): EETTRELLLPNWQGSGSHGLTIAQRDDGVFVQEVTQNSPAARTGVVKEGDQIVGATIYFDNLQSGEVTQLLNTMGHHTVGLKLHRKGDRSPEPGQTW

[25] = biological target: Inadl_10, Q8NI35
Sequence of Inadl_10, Q8NI35 (Q8NI35 1673-1763): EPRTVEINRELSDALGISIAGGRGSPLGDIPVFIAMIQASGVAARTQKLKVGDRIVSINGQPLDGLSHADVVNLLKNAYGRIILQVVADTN

[26] = biological target: PDZRN4_1, Q6ZMN7
Sequence of PDZRN4_1, Q6ZMN7 (Q6ZMN7 213-318): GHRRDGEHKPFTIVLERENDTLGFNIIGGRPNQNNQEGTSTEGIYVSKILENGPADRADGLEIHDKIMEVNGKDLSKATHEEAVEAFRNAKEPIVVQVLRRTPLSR

[27] = biological target: Inadl_8, Q8NI35
Sequence of Inadl_8, Q8NI35 (Q8NI35 1425-1530): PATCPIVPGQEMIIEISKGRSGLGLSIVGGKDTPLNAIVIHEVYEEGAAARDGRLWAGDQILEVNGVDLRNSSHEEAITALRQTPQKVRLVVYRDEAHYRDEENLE

[28] = biological target: NHERF4_1, Q86UT5-2
Sequence of NHERF4_1, Q86UT5-2 (Q86UT5 other isoform, or with tags, fused parts or gaps): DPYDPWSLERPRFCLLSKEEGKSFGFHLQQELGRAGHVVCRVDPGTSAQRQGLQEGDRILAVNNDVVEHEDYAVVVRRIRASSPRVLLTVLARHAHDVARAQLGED

[29] = biological target: SCRIB_1, Q14160
Sequence of SCRIB_1, Q14160 (Q14160 718-814): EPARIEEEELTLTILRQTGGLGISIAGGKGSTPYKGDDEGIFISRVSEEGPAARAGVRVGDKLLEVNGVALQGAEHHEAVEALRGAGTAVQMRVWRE

| Binder | pKd [1] | pKd [2] | pKd [3] | pKd [4] | pKd [5] | pKd [6] | pKd [7] | pKd [8] | pKd [9] | pKd [10] | pKd [11] | pKd [12] | pKd [13] | pKd [14] | pKd [15] | pKd [16] | pKd [17] | pKd [18] | pKd [19] | pKd [20] | other results |
| --- | --- | --- | --- | --- | --- | --- | --- | --- | --- | --- | --- | --- | --- | --- | --- | --- | --- | --- | --- | --- | --- |
| AQRARSPSDV [GPR12, P47775] | 3.75 | below the threshold | below the threshold | below the threshold | below the threshold | below the threshold | below the threshold | below the threshold | below the threshold | below the threshold | 3.85 | below the threshold | below the threshold | below the threshold | below the threshold | below the threshold | 4.14 | 3.57 | below the threshold | 3.75 | pKd [21]: below the threshold; pKd [22]: 3.98; pKd [23]: below the threshold; pKd [24]: below the threshold; pKd [25]: below the threshold; pKd [26]: below the threshold; pKd [27]: 4.6; pKd [28]: below the threshold; pKd [29]: below the threshold |
| EDGESWEYQI [TRPV6, Q9H1D0] | below the threshold | below the threshold | below the threshold | below the threshold | below the threshold | below the threshold | below the threshold | below the threshold | below the threshold | below the threshold | below the threshold | 3.83 | below the threshold | below the threshold | below the threshold | below the threshold | below the threshold | below the threshold | 4.11 | below the threshold | pKd [21]: below the threshold; pKd [22]: 4.13; pKd [23]: below the threshold; pKd [24]: below the threshold; pKd [25]: below the threshold; pKd [26]: below the threshold; pKd [27]: below the threshold; pKd [28]: below the threshold; pKd [29]: below the threshold |
| KKMLQRRTLL [OR8G1, Q15617] | 3.92 | below the threshold | below the threshold | below the threshold | below the threshold | below the threshold | below the threshold | below the threshold | below the threshold | below the threshold | below the threshold | below the threshold | below the threshold | 3.89 | below the threshold | below the threshold | 3.52 | below the threshold | 4.07 | 4.09 | pKd [21]: 4.32; pKd [22]: 3.8; pKd [23]: below the threshold; pKd [24]: below the threshold; pKd [25]: below the threshold; pKd [26]: below the threshold; pKd [27]: 3.55; pKd [28]: 4.51; pKd [29]: 3.71 |
| PYSESDDDWC [CACNA1A, O00555] | 3.48 | below the threshold | below the threshold | 3.48 | below the threshold | 3.68 | 5.79 | below the threshold | 3.48 | below the threshold | below the threshold | below the threshold | below the threshold | below the threshold | below the threshold | below the threshold | below the threshold | 4 | 3.83 | below the threshold | pKd [21]: 3.64; pKd [22]: 4.15; pKd [23]: below the threshold; pKd [24]: below the threshold; pKd [25]: below the threshold; pKd [26]: below the threshold; pKd [27]: below the threshold; pKd [28]: 4.01; pKd [29]: below the threshold |
| QSGLYESEEL [MYOT, Q9UBF9] | below the threshold | below the threshold | below the threshold | below the threshold | below the threshold | 5.09 | below the threshold | below the threshold | below the threshold | below the threshold | below the threshold | below the threshold | below the threshold | below the threshold | below the threshold | below the threshold | below the threshold | below the threshold | below the threshold | below the threshold | pKd [21]: below the threshold; pKd [22]: 4.21; pKd [23]: below the threshold; pKd [24]: below the threshold; pKd [25]: below the threshold; pKd [26]: below the threshold; pKd [27]: below the threshold; pKd [28]: 4.41; pKd [29]: 3.76 |
